Source: article PMC8405992 (2021)

Experiments:
Assay in all cases: NMR titration
Ubp6-UBL 2-81 = target: T1, Ubp6-UBL 2-81 (Saccharomyces cerevisiae, UniProt P43593)
T1 chain: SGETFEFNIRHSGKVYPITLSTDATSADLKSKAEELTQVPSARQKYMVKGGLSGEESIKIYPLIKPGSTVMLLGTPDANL

Dsk2-UBL 2-77 = target: T2, Dsk2-UBL 2-77 (Saccharomyces cerevisiae, UniProt P48510)
T2 chain: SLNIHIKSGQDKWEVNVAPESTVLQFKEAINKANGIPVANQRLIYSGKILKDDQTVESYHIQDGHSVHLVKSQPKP

K11-linked diubiquitin = K11-linked diubiquitin (Homo sapiens, UniProt P0CG48)
K48-linked diubiquitin = K48-linked diubiquitin (Homo sapiens, UniProt P0CG48)

B1: Rpn1 214-355 (protein)
chain: HNGEEDAVDLLLEIESIDKLPQFVDENTFQRVCQYMVACVPLLPPPEDVAFLKTAYSIYLSQNELTDAIALAVRLGEEDMIRSVFDATSDPVMHKQLAYILAAQKTSFEYEGVQDIIGNGKLSEHFLYLAKELNLTGPKVPE
Q: With B1 as the binder, how does the Kd (Ubp6-UBL 2-81) read?
A: Its Kd is 104 µM.

Q: And the Kd (Dsk2-UBL 2-77)?
A: Its Kd is 48 µM.

B2: Rpn1 214-355 (protein)
chain: B1 chain
modifications: K11-linked Ub2, distal Ub 15N-enriched
Q: How did the Kd (K11-linked diubiquitin) turn out when B2 was run?
A: The Kd was 44 µM.

B3: Rpn1 214-355 (protein)
chain: B1 chain
modifications: K48-linked Ub2, distal Ub 15N-enriched
Q: How did the Kd (K48-linked diubiquitin) turn out when B3 was run?
A: Its Kd is 288 µM.

B4: Rpn1 214-324 (protein)
chain: HNGEEDAVDLLLEIESIDKLPQFVDENTFQRVCQYMVACVPLLPPPEDVAFLKTAYSIYLSQNELTDAIALAVRLGEEDMIRSVFDATSDPVMHKQLAYILAAQKTSFEYE
modifications: K11-linked Ub2, distal Ub 15N-enriched
Q: How did the Kd (K11-linked diubiquitin) turn out when B4 was run?
A: Its Kd is 42 µM.
